T1: FcγRIIa H (FcγRIIa type H, His at position 131), extracellular domain with C-terminal His tag (human, UniProt P12318 34-217)
T1 construct: extracellular domain; Expressed in FreeStyle293 cells; analyte in the Biacore assay; also called FcgRIIa H; 2aH; not shown: His tag at the C terminus
T1 sequence (looked up): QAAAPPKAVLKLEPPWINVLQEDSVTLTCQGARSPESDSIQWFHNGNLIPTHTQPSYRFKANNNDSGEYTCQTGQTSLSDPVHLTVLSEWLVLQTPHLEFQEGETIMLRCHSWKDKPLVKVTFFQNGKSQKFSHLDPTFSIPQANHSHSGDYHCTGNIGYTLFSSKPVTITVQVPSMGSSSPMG

T2: FcγRIIa R (FcγRIIa, allotype R, Arg at position 131), extracellular domain with C-terminal His tag (human, UniProt P12318 34-217)
T2 construct: extracellular domain; soluble receptor used as Biacore analyte; also called 2aR; FcgRIIa R
T2 sequence (looked up): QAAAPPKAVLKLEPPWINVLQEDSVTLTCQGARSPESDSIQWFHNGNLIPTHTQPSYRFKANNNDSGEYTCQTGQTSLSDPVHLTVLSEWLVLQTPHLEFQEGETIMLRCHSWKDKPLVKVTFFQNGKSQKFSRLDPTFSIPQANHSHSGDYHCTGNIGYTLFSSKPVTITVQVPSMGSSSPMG

T3: FcγRIIb, extracellular domain with C-terminal His tag (human, UniProt P31994 43-217)
T3 construct: extracellular domain; soluble receptor used as Biacore analyte; also called 2b; FcgRIIb
T3 sequence (looked up): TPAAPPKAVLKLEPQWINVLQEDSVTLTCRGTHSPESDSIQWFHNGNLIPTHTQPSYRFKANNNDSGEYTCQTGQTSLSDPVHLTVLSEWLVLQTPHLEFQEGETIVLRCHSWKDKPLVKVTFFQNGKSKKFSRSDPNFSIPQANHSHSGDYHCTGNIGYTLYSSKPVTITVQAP


Experiments:
[1] = target: T1, FcγRIIa H (FcγRIIa type H, His at …); assay: SPR Biacore; He/Con_2aH divided by He/Con_2b (reference: FcgRIIb)
[2] = target: T1, FcγRIIa H (FcγRIIa type H, His at …); assay: SPR Biacore, captured antibody, FcgR analyte; GpH7-A5/GpH7-B3/GpL16-k0 = 100
[3] = target: T2, FcγRIIa R (FcγRIIa, allotype R, Arg at …); assay: Biacore SPR; He/Con_2aR divided by He/Con_2b (FcγRIIb)
Description: (§1) The heterodimerized antibodies He Abs in which one of the H chains was introduced with an alteration were assayed for their binding activities to each activating FcγR and inhibitory FcγR according to the method described in Example 4. […] The activating FcγRs in FIGS. 26, 27, 28, and 29 are FcγRIa, FcγRIIa (R), FcγRIIa (H), and FcγRIIIa, respectively.
(§2) Analysis of interaction between objective antibody and the FcγR was carried out using Biacore T100 (GE Healthcare). HBS-EP+ (GE Healthcare) was used as the running buffer, and the measurement temperature was set to 25° C. Chips produced by immobilizing the antigen peptide by the amine coupling method to a Series S Sencor Chip CM5 (GE Healthcare), or alternatively, chips produced by allowing preliminarily biotinylated antigen peptides to interact with and immobilize onto a Series S Sensor Chip SA (certified) (GE Healthcare) were used. Antibodies of interest were captured onto an antigen peptide-immobilized chip, and allowed to interact to each FcγR diluted with running buffer. To regenerate and repeatedly use the chip, the antibodies captured on the chip were washed off by reacting 10 mM glycine-HCl, pH 1.5.

[4] = target: T2, FcγRIIa R (FcγRIIa, allotype R, Arg at …); assay: Biacore SPR; binding relative to GpH7-A5/GpH7-B3/GpL16-k0 (=100)
Description: as §1, §2

[5] = target: T3, FcγRIIb, extracellular domain with …; assay: as above
Description: as §1, §2

Binder	He_2aH/2b (IIaH/IIb) [1]	He/Con_2aH [2]	IIaR/IIb (He_2aR/2b) [3]	He/Con_2aR (IIaR binding) [4]	He/Con_2b (IIb binding) [5]
GpH7-A5/GpH7-B3 variant L328_12R/GpL16-k0 (antibody, human IgG1, kappa, He Ab; IgG1; mutation in one H chain only; also called He Ab) heavy 1: not shown heavy 2: not shown light: DIVMTQSPLSLPVTPGEPASISCQASESLVHSNRNTYLHWYLQKPGQSPQLLIYKVSNRFSGVPDRFSGSGSGTDFTLKISRVEAEDVGVYYCSQNTHVPPTFGQGTKVEIERTVAAPSVFIFPPSDEQLKSGTASVVCLLNNFYPREAKVQWKVDNALQSGNSQESVTEQDSKDSTYSLSSTLTLSKADYEKHKVYACEVTHQGLSSPVTKSFNRGEC	4.6	42.5 % of HeCon Ab	–	–	–
heterodimerized antibody GpH7-A5/GpH7-B3 variant S267_08L/GpL16-k0 (antibody, human IgG1, kappa, He Ab: anti-glypican-3 IgG1, alteration in one H chain only; also called He Ab) heavy 1: not shown heavy 2: not shown light: DIVMTQSPLSLPVTPGEPASISCQASESLVHSNRNTYLHWYLQKPGQSPQLLIYKVSNRFSGVPDRFSGSGSGTDFTLKISRVEAEDVGVYYCSQNTHVPPTFGQGTKVEIERTVAAPSVFIFPPSDEQLKSGTASVVCLLNNFYPREAKVQWKVDNALQSGNSQESVTEQDSKDSTYSLSSTLTLSKADYEKHKVYACEVTHQGLSSPVTKSFNRGEC	–	–	0.66	72.1 % of control	109 % of control
heterodimerized antibody GpH7-A5/GpH7-B3 variant L328_12R/GpL16-k0 (antibody, human IgG1, kappa, He Ab: anti-glypican-3 IgG1, alteration in one H chain only; also called He Ab) heavy 1: not shown heavy 2: not shown light: DIVMTQSPLSLPVTPGEPASISCQASESLVHSNRNTYLHWYLQKPGQSPQLLIYKVSNRFSGVPDRFSGSGSGTDFTLKISRVEAEDVGVYYCSQNTHVPPTFGQGTKVEIERTVAAPSVFIFPPSDEQLKSGTASVVCLLNNFYPREAKVQWKVDNALQSGNSQESVTEQDSKDSTYSLSSTLTLSKADYEKHKVYACEVTHQGLSSPVTKSFNRGEC	–	–	0.54	5 % of control	–
heterodimerized antibody GpH7-A5/GpH7-B3 variant D270_05P/GpL16-k0 (antibody, human IgG1, kappa, He Ab: anti-glypican-3 IgG1, alteration in one H chain only; also called He Ab) heavy 1: not shown heavy 2: not shown light: DIVMTQSPLSLPVTPGEPASISCQASESLVHSNRNTYLHWYLQKPGQSPQLLIYKVSNRFSGVPDRFSGSGSGTDFTLKISRVEAEDVGVYYCSQNTHVPPTFGQGTKVEIERTVAAPSVFIFPPSDEQLKSGTASVVCLLNNFYPREAKVQWKVDNALQSGNSQESVTEQDSKDSTYSLSSTLTLSKADYEKHKVYACEVTHQGLSSPVTKSFNRGEC	–	–	0.54	7.5 % of control	13.9 % of control
heterodimerized antibody GpH7-A5/GpH7-B3 variant L328_11K/GpL16-k0 (antibody, human IgG1, kappa, He Ab: anti-glypican-3 IgG1, alteration in one H chain only; also called He Ab) heavy 1: not shown heavy 2: not shown light: DIVMTQSPLSLPVTPGEPASISCQASESLVHSNRNTYLHWYLQKPGQSPQLLIYKVSNRFSGVPDRFSGSGSGTDFTLKISRVEAEDVGVYYCSQNTHVPPTFGQGTKVEIERTVAAPSVFIFPPSDEQLKSGTASVVCLLNNFYPREAKVQWKVDNALQSGNSQESVTEQDSKDSTYSLSSTLTLSKADYEKHKVYACEVTHQGLSSPVTKSFNRGEC	–	–	0.33	2.5 % of control	–
heterodimerized antibody GpH7-A5/GpH7-B3 variant G237_09D/GpL16-k0 (antibody, human IgG1, kappa, He Ab: anti-glypican-3 IgG1, alteration in one H chain only; also called He Ab) heavy 1: not shown heavy 2: not shown light: DIVMTQSPLSLPVTPGEPASISCQASESLVHSNRNTYLHWYLQKPGQSPQLLIYKVSNRFSGVPDRFSGSGSGTDFTLKISRVEAEDVGVYYCSQNTHVPPTFGQGTKVEIERTVAAPSVFIFPPSDEQLKSGTASVVCLLNNFYPREAKVQWKVDNALQSGNSQESVTEQDSKDSTYSLSSTLTLSKADYEKHKVYACEVTHQGLSSPVTKSFNRGEC	–	–	0.7	156 % of control	223 % of control
heterodimerized antibody GpH7-A5/GpH7-B3 variant G237_20W/GpL16-k0 (antibody, human IgG1, kappa, He Ab: anti-glypican-3 IgG1, alteration in one H chain only; also called He Ab) heavy 1: not shown heavy 2: not shown light: DIVMTQSPLSLPVTPGEPASISCQASESLVHSNRNTYLHWYLQKPGQSPQLLIYKVSNRFSGVPDRFSGSGSGTDFTLKISRVEAEDVGVYYCSQNTHVPPTFGQGTKVEIERTVAAPSVFIFPPSDEQLKSGTASVVCLLNNFYPREAKVQWKVDNALQSGNSQESVTEQDSKDSTYSLSSTLTLSKADYEKHKVYACEVTHQGLSSPVTKSFNRGEC	–	–	0.71	138 % of control	193 % of control
heterodimerized antibody GpH7-A5/GpH7-B3 variant A327_18N/GpL16-k0 (antibody, human IgG1, kappa, He Ab: anti-glypican-3 IgG1, alteration in one H chain only; also called He Ab) heavy 1: not shown heavy 2: not shown light: DIVMTQSPLSLPVTPGEPASISCQASESLVHSNRNTYLHWYLQKPGQSPQLLIYKVSNRFSGVPDRFSGSGSGTDFTLKISRVEAEDVGVYYCSQNTHVPPTFGQGTKVEIERTVAAPSVFIFPPSDEQLKSGTASVVCLLNNFYPREAKVQWKVDNALQSGNSQESVTEQDSKDSTYSLSSTLTLSKADYEKHKVYACEVTHQGLSSPVTKSFNRGEC	–	–	0.79	88.9 % of control	113 % of control
heterodimerized antibody GpH7-A5/GpH7-B3 variant H268_02A/GpL16-k0 (antibody, human IgG1, kappa, He Ab: anti-glypican-3 IgG1, alteration in one H chain only; also called He Ab) heavy 1: not shown heavy 2: not shown light: DIVMTQSPLSLPVTPGEPASISCQASESLVHSNRNTYLHWYLQKPGQSPQLLIYKVSNRFSGVPDRFSGSGSGTDFTLKISRVEAEDVGVYYCSQNTHVPPTFGQGTKVEIERTVAAPSVFIFPPSDEQLKSGTASVVCLLNNFYPREAKVQWKVDNALQSGNSQESVTEQDSKDSTYSLSSTLTLSKADYEKHKVYACEVTHQGLSSPVTKSFNRGEC	–	–	0.8	133 % of control	167 % of control
heterodimerized antibody GpH7-A5/GpH7-B3 variant G236_09D/GpL16-k0 (antibody, human IgG1, kappa, He Ab: anti-glypican-3 IgG1, alteration in one H chain only; also called He Ab) heavy 1: not shown heavy 2: not shown light: DIVMTQSPLSLPVTPGEPASISCQASESLVHSNRNTYLHWYLQKPGQSPQLLIYKVSNRFSGVPDRFSGSGSGTDFTLKISRVEAEDVGVYYCSQNTHVPPTFGQGTKVEIERTVAAPSVFIFPPSDEQLKSGTASVVCLLNNFYPREAKVQWKVDNALQSGNSQESVTEQDSKDSTYSLSSTLTLSKADYEKHKVYACEVTHQGLSSPVTKSFNRGEC	–	–	0.64	106 % of control	167 % of control
heterodimerized antibody GpH7-A5/GpH7-B3 variant A327_07I/GpL16-k0 (antibody, human IgG1, kappa, He Ab: anti-glypican-3 IgG1, alteration in one H chain only; also called He Ab) heavy 1: not shown heavy 2: not shown light: DIVMTQSPLSLPVTPGEPASISCQASESLVHSNRNTYLHWYLQKPGQSPQLLIYKVSNRFSGVPDRFSGSGSGTDFTLKISRVEAEDVGVYYCSQNTHVPPTFGQGTKVEIERTVAAPSVFIFPPSDEQLKSGTASVVCLLNNFYPREAKVQWKVDNALQSGNSQESVTEQDSKDSTYSLSSTLTLSKADYEKHKVYACEVTHQGLSSPVTKSFNRGEC	–	–	0.77	98 % of control	127 % of control
heterodimerized antibody GpH7-A5/GpH7-B3 variant A327_12R/GpL16-k0 (antibody, human IgG1, kappa, He Ab: anti-glypican-3 IgG1, alteration in one H chain only; also called He Ab) heavy 1: not shown heavy 2: not shown light: DIVMTQSPLSLPVTPGEPASISCQASESLVHSNRNTYLHWYLQKPGQSPQLLIYKVSNRFSGVPDRFSGSGSGTDFTLKISRVEAEDVGVYYCSQNTHVPPTFGQGTKVEIERTVAAPSVFIFPPSDEQLKSGTASVVCLLNNFYPREAKVQWKVDNALQSGNSQESVTEQDSKDSTYSLSSTLTLSKADYEKHKVYACEVTHQGLSSPVTKSFNRGEC	–	–	0.67	6 % of control	–
heterodimerized antibody GpH7-A5/GpH7-B3 variant A327_09D/GpL16-k0 (antibody, human IgG1, kappa, He Ab: anti-glypican-3 IgG1, alteration in one H chain only; also called He Ab) heavy 1: not shown heavy 2: not shown light: DIVMTQSPLSLPVTPGEPASISCQASESLVHSNRNTYLHWYLQKPGQSPQLLIYKVSNRFSGVPDRFSGSGSGTDFTLKISRVEAEDVGVYYCSQNTHVPPTFGQGTKVEIERTVAAPSVFIFPPSDEQLKSGTASVVCLLNNFYPREAKVQWKVDNALQSGNSQESVTEQDSKDSTYSLSSTLTLSKADYEKHKVYACEVTHQGLSSPVTKSFNRGEC	–	–	0.72	124 % of control	172 % of control
heterodimerized antibody GpH7-A5/GpH7-B3 variant A327_10E/GpL16-k0 (antibody, human IgG1, kappa, He Ab: anti-glypican-3 IgG1, alteration in one H chain only; also called He Ab) heavy 1: not shown heavy 2: not shown light: DIVMTQSPLSLPVTPGEPASISCQASESLVHSNRNTYLHWYLQKPGQSPQLLIYKVSNRFSGVPDRFSGSGSGTDFTLKISRVEAEDVGVYYCSQNTHVPPTFGQGTKVEIERTVAAPSVFIFPPSDEQLKSGTASVVCLLNNFYPREAKVQWKVDNALQSGNSQESVTEQDSKDSTYSLSSTLTLSKADYEKHKVYACEVTHQGLSSPVTKSFNRGEC	–	–	0.78	110 % of control	140 % of control

Source: patent publication US20180155451A1 (published 2018)
